Data: the RNAGym collection of RNA variant scans (doi:10.7554/elife.80360)

B1: Hairpin Ribozyme (parent)
chain: GUCCUCUUUCACGUGCGCGUGAAAGAGAGAAGUGAACCAGAGAAACACACGUUGUGGUAUAUUACCUGGUA

Variants of: B1
Test: self-cleavage, relative activity (ratio to wild type); higher = more cleavage; co-transcriptional

Going from G15A A30U to G15A A35C, the self-cleavage rises from 0.109 to 0.806.

Going from G15A A35U to G15A A36U, the self-cleavage rises from 0.52 to 0.673.

First: G15A A39G
Second: G15A A41C
The self-cleavage of the first is lower: 0.287 for the first, 1.08 for the second.

Compared with G15A A43C, G15A A44G is lower in self-cleavage: 0.162 for the first, 0.139 for the second.

Compared with G15A A47G, G15A A47U is higher in self-cleavage: 0.124 for the first, 0.17 for the second.

Compared with G15A A49C, G15A A59G is higher in self-cleavage: 0.0193 for the first, 0.111 for the second.

Going from G15A A61C to G15A A61U, the self-cleavage rises from 0.161 to 0.283.

First: G15A A64G
Second: G15A A71U
The self-cleavage of the first is lower: 0.528 for the first, 0.785 for the second.

Compared with G15A C16A, G15A C16G is higher in self-cleavage: 0.881 for the first, 1.04 for the second.

First: G15A C18A
Second: G15A C38U
The self-cleavage of the first is higher: 1.09 for the first, 0.44 for the second.

First: G15A C46U
Second: G15A C48A
The self-cleavage of the first is higher: 0.147 for the first, 0.133 for the second.

Compared with G15A C48U, G15A C50A is higher in self-cleavage: 0.0998 for the first, 0.28 for the second.

First: G15A C50G
Second: G15A C50U
The self-cleavage of the first is lower: 0.219 for the first, 0.356 for the second.

Compared with G15A C65G, G15A C65U is lower in self-cleavage: 0.326 for the first, 0.235 for the second.

Compared with G15A C66G, G15A G17A is higher in self-cleavage: 0.0886 for the first, 0.87 for the second.

Compared with G15A G19A, G15A G19C is lower in self-cleavage: 0.898 for the first, 0.856 for the second.

Going from G15A G19U to G15A G21U, the self-cleavage falls from 0.942 to 0.841.

Compared with G15A G25U, G15A G27U is lower in self-cleavage: 0.573 for the first, 0.373 for the second.

Going from G15A G29A to G15A G34C, the self-cleavage rises from 0.118 to 1.23.

Compared with G15A G40A, G15A G40C is lower in self-cleavage: 0.306 for the first, 0.112 for the second.

First: G15A G51A
Second: G15A G54A
The self-cleavage of the first is higher: 1.21 for the first, 0.572 for the second.

Going from G15A G54C to G15A G56A, the self-cleavage falls from 0.364 to 0.135.

Compared with G15A G56C, G15A G57A is lower in self-cleavage: 0.172 for the first, 0.167 for the second.

Going from G15A G57C to G15A G69C, the self-cleavage rises from 0.101 to 0.31.

Going from G15A U52A to G15A U53C, the self-cleavage rises from 0.863 to 0.907.

First: G15A U55A
Second: G15A U55G
The self-cleavage of the first is lower: 0.146 for the first, 0.215 for the second.

First: G15A U58C
Second: G15A U60G
The self-cleavage of the first is higher: 1.03 for the first, 0.639 for the second.

First: G15A U62C
Second: G15A U67C
The self-cleavage of the first is lower: 0.214 for the first, 0.24 for the second.

Going from G15A U67G to G15A U70A, the self-cleavage rises from 0.234 to 0.689.

Compared with G15A U70G, G15C A23G is higher in self-cleavage: 0.838 for the first, 1.05 for the second.

First: G15C A24C
Second: G15C A24G
The self-cleavage of the first is higher: 1.15 for the first, 0.892 for the second.

First: G15C A26U
Second: G15C A28U
The self-cleavage of the first is higher: 0.777 for the first, 0.74 for the second.

Going from G15C A30C to G15C A30G, the self-cleavage falls from 0.377 to 0.198.

First: G15C A35C
Second: G15C A35U
The self-cleavage of the first is lower: 0.628 for the first, 0.703 for the second.

First: G15C A36U
Second: G15C A39G
The self-cleavage of the first is higher: 0.505 for the first, 0.304 for the second.

First: G15C A43C
Second: G15C A44C
The self-cleavage of the first is higher: 0.225 for the first, 0.0713 for the second.

Going from G15C A44U to G15C A47G, the self-cleavage falls from 0.18 to 0.108.

Compared with G15C A49C, G15C A49G is higher in self-cleavage: 0.101 for the first, 0.523 for the second.

Going from G15C A49U to G15C A61C, the self-cleavage falls from 0.102 to 0.0894.

First: G15C A71G
Second: G15C C16G
The self-cleavage of the first is lower: 0.98 for the first, 1.06 for the second.

Going from G15C C37A to G15C C37U, the self-cleavage rises from 0.316 to 0.592.

Compared with G15C C46G, G15C C48U is higher in self-cleavage: 0.0585 for the first, 0.112 for the second.

Compared with G15C C65G, G15C C66U is higher in self-cleavage: 0.369 for the first, 0.555 for the second.

Going from G15C G17A to G15C G17C, the self-cleavage falls from 1.03 to 0.668.

First: G15C G21C
Second: G15C G21U
The self-cleavage of the first is lower: 0.897 for the first, 1.06 for the second.

Compared with G15C G27C, G15C G27U is higher in self-cleavage: 0.204 for the first, 0.214 for the second.

First: G15C G29A
Second: G15C G32A
The self-cleavage of the first is lower: 0.148 for the first, 0.263 for the second.

Compared with G15C G32C, G15C G32U is higher in self-cleavage: 0.0609 for the first, 0.113 for the second.

Going from G15C G34U to G15C G40A, the self-cleavage falls from 0.975 to 0.315.

Going from G15C G42A to G15C G51A, the self-cleavage rises from 0.0806 to 0.796.

First: G15C G51C
Second: G15C G54A
The self-cleavage of the first is higher: 1.23 for the first, 0.532 for the second.

Going from G15C G54C to G15C G57U, the self-cleavage falls from 0.404 to 0.282.

First: G15C G68U
Second: G15C G69U
The self-cleavage of the first is lower: 0.235 for the first, 0.276 for the second.

Going from G15C U20C to G15C U20G, the self-cleavage falls from 0.997 to 0.828.

Going from G15C U52G to G15C U53C, the self-cleavage rises from 0.812 to 1.02.

Compared with G15C U53G, G15C U55A is lower in self-cleavage: 0.695 for the first, 0.279 for the second.

Compared with G15C U55C, G15C U55G is higher in self-cleavage: 0.276 for the first, 0.487 for the second.

Compared with G15C U60C, G15C U62G is lower in self-cleavage: 1.25 for the first, 0.134 for the second.

First: G15C U63C
Second: G15C U67A
The self-cleavage of the first is higher: 0.13 for the first, 0.112 for the second.

Going from G15C U67C to G15C U70C, the self-cleavage rises from 0.2 to 0.965.

Going from G15C U70G to G15U A22U, the self-cleavage rises from 0.946 to 0.996.

Compared with G15U A24U, G15U A26G is lower in self-cleavage: 0.957 for the first, 0.895 for the second.

First: G15U A28C
Second: G15U A28G
The self-cleavage of the first is lower: 0.619 for the first, 1.16 for the second.

Compared with G15U A31C, G15U A35C is higher in self-cleavage: 0.118 for the first, 1.16 for the second.

First: G15U A35G
Second: G15U A36G
The self-cleavage of the first is lower: 0.933 for the first, 1.25 for the second.

Going from G15U A39U to G15U A41G, the self-cleavage rises from 0.544 to 0.943.

Compared with G15U A43C, G15U A44C is lower in self-cleavage: 0.195 for the first, 0.145 for the second.

Compared with G15U A45U, G15U A59C is lower in self-cleavage: 0.221 for the first, 0.11 for the second.

Going from G15U A71C to G15U C16U, the self-cleavage falls from 1.53 to 0.937.

Compared with G15U C18A, G15U C18U is lower in self-cleavage: 1.07 for the first, 1.03 for the second.

First: G15U C38A
Second: G15U C38U
The self-cleavage of the first is lower: 0.124 for the first, 0.662 for the second.

Going from G15U C46G to G15U C50G, the self-cleavage rises from 0.167 to 0.353.

Compared with G15U C65A, G15U C66A is lower in self-cleavage: 1.15 for the first, 0.367 for the second.

Compared with G15U G17U, G15U G19A is lower in self-cleavage: 1.06 for the first, 0.968 for the second.

Going from G15U G25C to G15U G29C, the self-cleavage falls from 0.705 to 0.125.

Going from G15U G32A to G15U G32U, the self-cleavage rises from 0.0947 to 0.144.

Going from G15U G42C to G15U G54C, the self-cleavage falls from 0.44 to 0.385.

Compared with G15U G56C, G15U G68C is lower in self-cleavage: 0.195 for the first, 0.137 for the second.

Going from G15U G69U to G15U U20A, the self-cleavage rises from 0.176 to 0.941.

First: G15U U20G
Second: G15U U33A
The self-cleavage of the first is higher: 0.853 for the first, 0.248 for the second.

Compared with G15U U33G, G15U U52A is higher in self-cleavage: 0.18 for the first, 0.863 for the second.

First: G15U U52G
Second: G15U U55C
The self-cleavage of the first is higher: 0.94 for the first, 0.306 for the second.

Compared with G15U U55G, G15U U58C is higher in self-cleavage: 0.302 for the first, 0.889 for the second.

Work on G15U U60C yielded a self-cleavage of 1.01.
